In EP1173480B1 (Neurochem (International) Limited, dated 2008):
Non-standard residues stand in square brackets, D forms with d. No end group written: not given here.

Target: Aβ(1-40), naturally occurring all-[L] isomer (UniProt P05067 672-711)
Assay: cell-based or functional assay

Sequence of Aβ(1-40), naturally occurring all-[L] isomer (P05067 672-711 limits assumed): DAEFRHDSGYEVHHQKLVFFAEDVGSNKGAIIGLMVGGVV

Binder | order of potency as inhibitor of Aβ(1-40) fibril formation, thioflavin T fluorescence, peptide tested at 20µM (1 = strongest) | order of potency as inhibitor of Aβ(1-40) fibril formation, thioflavin T fluorescence, peptide tested at 80µM (1 = strongest)
[dA][dF][dF][dV][dL][dK] [all-[D] Ala-Phe-Phe-Val-Leu-Lys (retro-isomer)] | 5 rank | 1 rank
[dK][dA][dV][dF][dF][dA] [all-[D] Lys-Ala-Val-Phe-Phe-Ala] | 7 rank | 6 rank
[dK][dI][dV][dF][dF][dA] [all-[D] Lys-Ile-Val-Phe-Phe-Ala] | 1 rank | 5 rank
[dK][dL][dV][dF] [all-[D] Lys-Leu-Val-Phe] | 6 rank | 9 rank
[dK][dL][dV][dF][dF] [all-[D] Lys-Leu-Val-Phe-Phe] | 9 rank | 10 rank
[dK][dL][dV][dF][dF][dA] [all-[D] Lys-Leu-Val-Phe-Phe-Ala] | 3 rank | 1 rank

Next, values leading:

order of potency as inhibitor of Aβ(1-40) fibril formation, thioflavin T fluorescence, peptide tested at 20µM (1 = strongest) | order of potency as inhibitor of Aβ(1-40) fibril formation, thioflavin T fluorescence, peptide tested at 80µM (1 = strongest) | Binder
2 rank | 1 rank | [dK][dK][dL][dV][dF][dF][dA] [all-[D] Lys-Lys-Leu-Val-Phe-Phe-Ala]
10 rank | 7 rank | KKLVFFA [all-[L] Lys-Lys-Leu-Val-Phe-Phe-Ala]
4 rank | 1 rank | [dK][dF][dV][dF][dF][dA] [all-[D] Lys-Phe-Val-Phe-Phe-Ala]
8 rank | 8 rank | KLVFFA [all-[L] Lys-Leu-Val-Phe-Phe-Ala]
11 rank | 11 rank | AFFVLK (not fully specified) [all-[L] Ala-Phe-Phe-Val-Leu-Lys]
